Measured values reported in article PMC5339705, “OGG1-DNA interactions facilitate NF-κB binding to DNA targets”.

B1: κB2-G3 (dsDNA)
DNA 1: TGAGGGGACCCTGAGCTCAGGGAATTTCCCTGG
DNA 2: CCAGGGAAATTCCCTGAGCTCAGGGTCCCCTCA
modifications: 8-oxoG at strand 1 position 4 (number label read as following the base)
B2: κB2-Wt (dsDNA)
DNA 1: TGAGGGGACCCTGAGCTCAGGGAATTTCCCTGG
DNA 2: CCAGGGAAATTCCCTGAGCTCAGGGTCCCCTCA
B3: κB2-G6 (dsDNA)
DNA 1: TGAGGGGACCCTGAGCTCAGGGAATTTCCCTGG
DNA 2: CCAGGGAAATTCCCTGAGCTCAGGGTCCCCTCA
modifications: 8-oxoG at strand 2 position 23 (opposite C11 of strand 1)
B4: κB2-G4 (dsDNA)
DNA 1: TGAGGGGACCCTGAGCTCAGGGAATTTCCCTGG
DNA 2: CCAGGGAAATTCCCTGAGCTCAGGGTCCCCTCA
modifications: 8-oxoG at strand 1 position 7
B5: κB1-G3 (dsDNA)
DNA 1: TTCCCTGGTCCCCGGGCTTTTCCAGACATCG
DNA 2: CGATGTCTGGAAAAGCCCGGGGACCAGGGAA
modifications: 8-oxoG at strand 2 position 27 (opposite C5 of strand 1)

What was measured:
Settings in all cases: protein: commercial;commercial; tags: ;; copies: 1;1; label: 5' biotin on strand 2; blunt
[1] = target: T1, p65 (RelA);p50 (NF-kB1) (;, UniProt Q04206;P19838 1-551;1-433, |); test: EMSA; with OGG1 4 ng; higher than Wt; 10 mM Tris-HCl pH 8.0, 5 mM NaCl, 1 mM EDTA, 1 mM DTT, 0.1 mg/ml BSA, 0.1 µg/µl poly(dI-dC) (stated for NE reactions), 10 fmol probe, 10 µl, RT 5-10 min; 6% gel 0.5x TBE 4 °C
[2] = target: T1, p65 (RelA);p50 (NF-kB1); test: EMSA; no OGG1; complex from 5 min; 10 mM Tris-HCl pH 8.0, 5 mM NaCl, 1 mM EDTA, 1 mM DTT, 0.1 mg/ml BSA, 0.1 µg/µl poly(dI-dC) (stated for NE reactions), 10 fmol probe, 10 µl, RT 5-10 min; 6% gel 0.5x TBE 4 °C
[3] = target: T1, p65 (RelA);p50 (NF-kB1); test: EMSA; with OGG1 4 ng; highest shifted amount of κB1 oligos; 10 mM Tris-HCl pH 8.0, 5 mM NaCl, 1 mM EDTA, 1 mM DTT, 0.1 mg/ml BSA, 0.1 µg/µl poly(dI-dC) (stated for NE reactions), 10 fmol probe, 10 µl, RT 5-10 min; 6% gel 0.5x TBE 4 °C

T1 sequence (Q04206 whole entry, chain 1 of 2): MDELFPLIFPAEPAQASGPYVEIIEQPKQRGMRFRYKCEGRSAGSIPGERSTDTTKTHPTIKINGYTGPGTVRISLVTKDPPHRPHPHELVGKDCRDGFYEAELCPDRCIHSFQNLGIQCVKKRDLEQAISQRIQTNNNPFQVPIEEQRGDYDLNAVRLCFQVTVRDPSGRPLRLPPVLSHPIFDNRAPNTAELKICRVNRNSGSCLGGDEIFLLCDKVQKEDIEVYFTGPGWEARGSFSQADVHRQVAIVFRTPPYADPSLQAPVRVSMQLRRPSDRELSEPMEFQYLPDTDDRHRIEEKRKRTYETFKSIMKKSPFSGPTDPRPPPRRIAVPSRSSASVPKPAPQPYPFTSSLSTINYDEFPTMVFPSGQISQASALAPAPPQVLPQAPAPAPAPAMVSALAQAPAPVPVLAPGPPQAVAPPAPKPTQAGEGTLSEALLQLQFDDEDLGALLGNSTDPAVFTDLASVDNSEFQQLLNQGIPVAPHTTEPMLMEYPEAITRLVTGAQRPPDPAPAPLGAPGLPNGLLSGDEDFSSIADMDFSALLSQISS
T1 sequence (P19838 1-433, chain 2 of 2): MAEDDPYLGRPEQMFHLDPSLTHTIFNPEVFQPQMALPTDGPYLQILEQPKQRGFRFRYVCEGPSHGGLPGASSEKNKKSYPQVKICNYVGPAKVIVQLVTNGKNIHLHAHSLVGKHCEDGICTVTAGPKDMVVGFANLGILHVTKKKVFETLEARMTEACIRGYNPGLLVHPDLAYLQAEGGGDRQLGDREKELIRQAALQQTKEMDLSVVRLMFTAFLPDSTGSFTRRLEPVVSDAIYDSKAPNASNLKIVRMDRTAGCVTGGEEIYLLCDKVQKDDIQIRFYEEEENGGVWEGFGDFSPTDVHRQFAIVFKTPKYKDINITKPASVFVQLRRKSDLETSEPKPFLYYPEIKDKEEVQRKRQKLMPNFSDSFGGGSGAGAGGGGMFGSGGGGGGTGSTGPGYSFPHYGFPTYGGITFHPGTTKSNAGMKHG

Binder | binding result [1] | also measured
B1 | binds | 
B2 |  | binding result [2]: binds
B3 | binds | 
B4 | binds | 
B5 |  | binding result [3]: binds
